# Measured values published in the supplement of paper PMC7877785.
# ± gives the uncertainty stated by the source.
# Assay: self-splicing fitness, log relative to wild type (ln ratio); higher = more splicing; Tetrahymena group I intron in knt gene, E. coli kanamycin selection, DiMSum; sequences stand for … in CUCUCU…GGAGGGAAAAGUUAUCAGGCAUGCACCUGGUAGCUAGUCUUUAAACCAAUAGAUUGCAUCGGUUUAAAAGGCAAGACCGUCAAAUUGCGGGAAAGGGGUCAACAGCCGUUCAGUACCAAGUCUCAGGGGAAACUUUGAGAUGGCCUUGCAAAGGGUAUGGUAAUAAGCUGACGGACAUGGUCCUAACCACGCAGCCAAGUCCUAAGUCAACAGAUCUUCUGUUGAUAUGGAUGCAGUUCACAGACUAAAUGUCGGUCGGGGAAGAUGUAUUCUUCUCAUAAGAUAUAGUCGGACCUCUCCUUAAUGGGAGCUAGCGGAUGAAGUGAUGCAACACUGGAGCCGCUGGGAACUAAUUUGUAUGCGAAAGUAUAUUGAUUAGUUUUGGAGUACUCGUGGUCG
# Outline: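 Six replicate transformations of E. coli BL21(DE3) with a pET-22b(+) library were grown overnight at 37°C or 30°C. The library randomised all eight P1ex-region intron nucleotides, the intron lying in the knt kanamycin-resistance gene, and plates were LB agar with or without 25 μg/mL kanamycin plus 100 μg/mL carbenicillin, 50 μM IPTG and 0.2% rhamnose. Pooled colonies were amplicon-sequenced on an Illumina HiSeq 2500, and fitness is the DiMSum error-weighted combination of wild-type-normalised replicate fold changes, kanamycin versus none.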
Sequence,self-splicing fitness (ln) (30 °C),self-splicing fitness (ln) (37 °C)
AUUCAGCAAUAUUACGGGAG,-0.828 ± 0.051,-0.443 ± 0.063
AUUCAGCAAUAUUACGGGCG,-0.695 ± 0.1,-0.0814 ± 0.12
AUUCAGCAAUAUUACGGUGU,-0.571 ± 0.042,-0.106 ± 0.055
AUUCAGCAAUAUUACGUAUC,-3.62 ± 0.26,-1.04 ± 0.16
AUUCAGCAAUAUUACGUCCU,-1.05 ± 0.066,-0.0115 ± 0.11
AUUCAGCAAUAUUACGUCGA,-0.991 ± 0.085,-0.503 ± 0.097
AUUCAGCAAUAUUACGUGGG,-2.63 ± 0.11,-1.87 ± 0.1
AUUCAGCAAUAUUACGUUCC,-1.54 ± 0.14,-1.5 ± 0.21
AUUCAGCAAUAUUACGUUGC,-2.72 ± 0.23,-2.52 ± 0.3
AUUGAGCAAUAUUACGAAUC,-2.93 ± 0.4,
AUUGAGCAAUAUUACGAGGG,-2.87 ± 0.14,-2.85 ± 0.29
AUUGAGCAAUAUUACGAUUU,-1.11 ± 0.09,-0.383 ± 0.11
AUUGAGCAAUAUUACGCACG,-3.07 ± 0.37,
AUUGAGCAAUAUUACGCAGA,,-2.45 ± 0.41
AUUGAGCAAUAUUACGCAUG,-4 ± 0.32,-0.903 ± 0.26
AUUGAGCAAUAUUACGCAUU,-2.64 ± 0.23,-1.49 ± 0.18
AUUGAGCAAUAUUACGCUAG,,-2.2 ± 0.22
AUUGAGCAAUAUUACGCUCU,-3.63 ± 0.24,-2.27 ± 0.17
AUUGAGCAAUAUUACGGACG,-2.11 ± 0.3,-1.96 ± 0.32
AUUGAGCAAUAUUACGGCGU,-0.734 ± 0.11,0.573 ± 0.17
AUUGAGCAAUAUUACGGGAC,-3.28 ± 0.42,

Sequence,self-splicing fitness (ln) (30 °C),self-splicing fitness (ln) (37 °C)
AUUGAGCAAUAUUACGGGGA,-2.32 ± 0.24,-2.49 ± 0.28
AUUGAGCAAUAUUACGGGGG,-4.39 ± 0.46,-3.19 ± 0.31
AUUGAGCAAUAUUACGGUCC,,-1.58 ± 0.22
AUUGAGCAAUAUUACGUAAG,-2.78 ± 0.13,-1.82 ± 0.13
AUUGAGCAAUAUUACGUAGC,-3.31 ± 0.4,-2.32 ± 0.31
AUUGAGCAAUAUUACGUCUC,,-2.21 ± 0.42
AUUGAGCAAUAUUACGUGAC,,-1.61 ± 0.45
AUUGAGCAAUAUUACGUGUA,-3.52 ± 0.21,-2.69 ± 0.24
AUUGAGCAAUAUUACGUUAC,,-1.76 ± 0.3
AUUUAGCAAUAUUACGAAUA,-2.16 ± 0.33,-0.575 ± 0.27
AUUUAGCAAUAUUACGACAU,0.163 ± 0.014,0.28 ± 0.033
AUUUAGCAAUAUUACGACGU,0.023 ± 0.064,0.539 ± 0.077
AUUUAGCAAUAUUACGAGAA,-2.09 ± 0.32,-1.2 ± 0.28
AUUUAGCAAUAUUACGAGCC,-1.74 ± 0.46,
AUUUAGCAAUAUUACGAGUG,-2.59 ± 0.18,-0.743 ± 0.18
AUUUAGCAAUAUUACGAUAA,-1.53 ± 0.2,-0.502 ± 0.39
AUUUAGCAAUAUUACGAUUG,-2.72 ± 0.21,-2.05 ± 0.27
AUUUAGCAAUAUUACGCAGA,-2.07 ± 0.3,-1.07 ± 0.19
AUUUAGCAAUAUUACGCCCG,-1.48 ± 0.24,-1.15 ± 0.28
AUUUAGCAAUAUUACGCCUU,-0.196 ± 0.092,-0.0916 ± 0.12
AUUUAGCAAUAUUACGCUCA,-1.14 ± 0.18,0.0165 ± 0.19
